The values that follow come from US20250258178A1 (SHIONOGI, published 2025).

In one experiment the target is T1, Peptide #14 (human).
T1 construct: 15-mer of human HRG on the peptide microarray; the printed position spans only 14 residues
T1 peptide: GHHPHGHHPHGHHPH
Nature of the experiment: peptide microarray, fluorescent anti-mouse IgG. The method, then: (§1) An overlapping peptide scanning method was performed to find out specific antibody-binding peptide epitopes. The amino acid sequence of the HRG protein was obtained in NCBI protein database. PEPperPrint (registered trademark) (Heidelberg, Germany) was commissioned to prepare PEPperCHIP peptide microarrays designed from HRG protein sequences. Each peptide consisted of an overlapping peptide library having 15 amino acid residues overlapping 14 amino acid residues and was extended at the N- and C-terminus with a neutral GSGSGSG linker to ensure that the peptides were separated from each other. […] After treatment of 21 types of anti-HRG monoclonal antibodies, it stained with an anti-mouse IgG polyclonal secondary antibody followed by reading fluorescence intensity on a scanner to quantify protein-antibody binding.
(§2) Each microarray was processed as follows. Before incubation with a sample, a standard buffer was applied on slides followed by treating with a blocking buffer. The microarray was treated with a fluorescently-labeled anti-mouse IgG secondary antibody followed by the measurement of background fluorescence intensity caused by non-specific interactions using a scanner.
(§3) The microarray was incubated with the 21 types of anti-HRG monoclonal antibodies. The microarray was stained with a fluorescently labeled anti-mouse IgG secondary antibody. The fluorescence intensity at each position was measured by a scanner.

The target in another experiment is T2, Peptide #15 (human).
T2 construct: 15-mer of human HRG on the peptide microarray; the printed position spans only 14 residues
T2 peptide: HHPHGHHPHGHHPHC
Nature of the experiment: peptide microarray, fluorescent anti-mouse IgG. The method, then:
as §1, §2, §3

The next experiment addresses T3, Peptide #20 (human).
T3 construct: 15-mer of human HRG printed on a PEPperCHIP peptide microarray
T3 peptide: HHPHGHHPHCHDFQD
Nature of the experiment: peptide microarray, fluorescent anti-mouse IgG. The method, then: as §1, §2, §3

For a further experiment, the target named is T4, Peptide #24 (human).
T4 construct: 15-mer of human HRG printed on a PEPperCHIP peptide microarray
T4 peptide: GHHPHCHDFQDYGPC
In words: peptide microarray, fluorescent anti-mouse IgG. The method, then:
as §1, §2, §3

The target in another experiment is T5, Peptide #25 (human).
T5 construct: 15-mer of human HRG printed on a PEPperCHIP peptide microarray
T5 peptide: HHPHCHDFQDYGPCD
In words: peptide microarray, fluorescent anti-mouse IgG. The method, then:
as §1, §2, §3

Another experiment deals with T6, Peptide #3 (human).
T6 construct: 15-mer of human HRG printed on a PEPperCHIP peptide microarray
T6 peptide: HSHGPPLPQGPPPLL
In words: peptide microarray, fluorescent anti-mouse IgG. The method, then:
as §1, §2, §3

For experiment [1], the target named is T7, human histidine-rich glycoprotein (HRG), purified from human plasma (human, UniProt P04196 19-525).
T7 construct: also called human purified HRG; human purified HRG protein
T7 sequence: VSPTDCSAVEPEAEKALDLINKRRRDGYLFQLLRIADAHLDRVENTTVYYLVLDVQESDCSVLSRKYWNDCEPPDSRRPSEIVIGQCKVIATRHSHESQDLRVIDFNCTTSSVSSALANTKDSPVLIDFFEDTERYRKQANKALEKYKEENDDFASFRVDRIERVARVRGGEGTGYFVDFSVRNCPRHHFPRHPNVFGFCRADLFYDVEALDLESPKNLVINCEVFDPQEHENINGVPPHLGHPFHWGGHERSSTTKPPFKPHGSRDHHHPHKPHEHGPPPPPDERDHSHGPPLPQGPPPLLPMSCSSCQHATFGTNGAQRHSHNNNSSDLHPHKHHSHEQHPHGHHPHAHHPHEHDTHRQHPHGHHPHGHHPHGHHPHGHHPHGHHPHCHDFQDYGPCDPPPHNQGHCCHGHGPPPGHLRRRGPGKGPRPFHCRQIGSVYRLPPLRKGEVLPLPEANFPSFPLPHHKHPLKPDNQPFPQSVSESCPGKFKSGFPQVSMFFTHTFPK
In words: sandwich ELISA, HRG captured by solid phase 14-6F. The method, then: The capture antibody solution was dispensed at 25 μL per well into 384-well Maxisorp plates (NUNC), and the plates were incubated at room temperature for 3 hours. The plates were washed twice with 120 μL of washing solution per well (0.05% Tween 20-containing PBS). A blocking solution (1% BSA-containing PBS) was dispensed at 30 μL per well, and the plates were incubated at room temperature for 3 hours. The blocking solution was removed followed by dispensing the standard substance for evaluation at 20 μL per well (n=2), and the plates were incubated at room temperature for 3 hours. After washing the plates four times with the washing solution as described above, the solution of each detector antibody was dispensed at 10 μL per well, followed by dispensing a horseradish peroxidase-streptavidin solution (0.05 μg/mL) at 10 μL per well, and the plates were incubated at room temperature for 1 hour. After washing the plates four times with the washing solution as described above, a chromogenic substrate solution (TMB (3,3′,5,5′-tetramethylbenzidine)) was dispensed at 20 μL per well followed by incubating the plates at room temperature for 10 minutes, then a reaction stop solution 0.5 M H₂SO₄ was added at 20 μL/well, and the absorbance at 450 nm was measured.
The results regarding the evaluation of combinations chosen from 21 types of anti-HRG monoclonal antibodies are shown in Table 1. In Table 1, the absorbance at a wavelength of 450 nm of each combination was determined as follows: less than 1.0 OD: −, 1.0 OD or more and less than 2.0 OD: +, 2.0 OD or more and less than 3.0 OD: ++, and 3.0 OD or more: +++. The combinations of antibodies which could construct a sandwich ELISA system having enough level of absorbance change were 86 sets evaluated as ++ or +++ in Table 1.
(An ELISA detects its analyte on a solid surface through an enzyme-linked reagent.)

B1: anti-HRG monoclonal antibody 75-2D (antibody, V domains shown)
VH: QVQLQQSGAELMKPGASVKISCKATGYTFSSYWIEWVKQRPGHGLEWIGEILPGSGRTNYNEKFKGKATFTADTSSNTAYMQLSSLTSEDSAVYYCARYSYFYYFDYWGQGTTLTVSS
VL: DNVLTQSPAIMSASLGERVTMTCTASSSVSSSYLHWYQQKPGSSPKLWIYSTSNLASGVPARFSGSGSGTSYSLTISSMEAEDAATYYCHQYHRSPWTFGGGTKLEIK
notes: Mouse hybridoma monoclonal; also called clone No. 75-2D
Take B1: the binding result with Peptide #14, with Peptide #15, with Peptide #20, with Peptide #24 and with Peptide #25 was “binds” throughout.

B2: anti-HRG monoclonal antibody 69-1A (antibody, V domains shown)
VH: EVKLEESGGGLVQPGGSMKLSCAASGFTFSDAWMDWVRQSPEKGLEWVAEIRSKANNHGTYYAESVKGRFTISRDDSKSSVYLRMNSLSAEDTGIYYCTRPFAYWGQGTLVTVSA
VL: DVVVTQTPLSLPVSLGDQASISCRSSQSLVHIDGNTYFHWYVQKPGQSPKLLIYKVSNRFSGVPDRFSGSGSGTDFTLKISRVEAEDLGVYFCSQSTHVPLTFGAGTKLELK
notes: Mouse hybridoma monoclonal; also called clone No. 69-1A
As for B2, the binding result with Peptide #3 was “binds”. The “absorbance at 450 nm (OD450)” value in experiment [1] was 1 to 2 od.
